Measured values published in article PMC4157582.

Molecular target: TAP-Mud13p (S. cerevisiae) (UniProt Q08920)
Experiment: pull-down

Sequence of UniProt Q08920 (Q08920 whole entry): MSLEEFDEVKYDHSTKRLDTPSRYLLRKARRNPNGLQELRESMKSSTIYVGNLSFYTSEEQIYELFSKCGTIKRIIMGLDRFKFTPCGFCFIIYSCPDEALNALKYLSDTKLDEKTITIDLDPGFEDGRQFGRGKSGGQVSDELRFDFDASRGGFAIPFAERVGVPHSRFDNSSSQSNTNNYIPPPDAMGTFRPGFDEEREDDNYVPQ

B1: Tif4631p Δ491-501 (natural protein)
chain: MTDETAHPTQSASKQESAALKQTGDDQQESQQQRGYTNYNNGSNYTQKKPYNSNRPHQQRGGKFGPNRYNNRGNYNGGGSFRGGHMGANSSNVPWTGYYNNYPVYYQPQQMAAAGSAPANPIPVEEKSPVPTKIEITTKSGEHLDLKEQHKAKLQSQERSTVSPQPESKLKETSDSTSTSTPTPTPSTNDSKASSEENISEAEKTRRNFIEQVKLRKAALEKKRKEQLEGSSGNNNIPMKTTPENVEEKGSDKPEVTEKTKPAEEKSAEPEVKQETPAEEGEQGEKGQIKEESTPKVLTFAERLKLKKQQKEREEKTEGKENKEVPVQEETKSAIESAPVPPSEQVKEETEVAETEQSNIDESATTPAIPTKSDEAEAEVEAEAGDAGTKIGLEAEIETTTDETDDGTNTVSHILNVLKDATPIEDVFSFNYPEGIEGPDIKYKKEHVKYTYGPTFLLQFKDKLNVKADAEWVQSTASKIVIPPGMGRGNSSRGHDFRNTSVRNMDDRANSRTSSKRRSKRMNDDRRSNRSYTSRRDRERGSYRNEEKREDDKPKEEVAPLVPSANRWVPKFKSKKTEKKLAPDGKTELLDKDEVERKMKSLLNKLTLEMFDAISSEILAIANISVWETNGETLKAVIEQIFLKACDEPHWSSMYAQLCGKVVKELNPDITDETNEGKTGPKLVLHYLVARCHAEFDKGWTDKLPTNEDGTPLEPEMMSEEYYAAASAKRRGLGLVRFIGFLYRLNLLTGKMMFECFRRLMKDLTDSPSEETLESVVELLNTVGEQFETDSFRTGQATLEGSQLLDSLFGILDNIIQTAKISSRIKFKLIDIKELRHDKNWNSDKKDNGPKTIQQIHEEEERQRQLKNNSRSNSRRTNNSSNRHSFRRDAPPASKDSFITTRTYSQRNSQRAPPPKEEPAAPTSTATNMFSALMGESDDEE
modifications: 35S-labelled
In the case of B1, the percent reduction of the interaction efficiency against wild-type Tif4631p is reported as over 30%.
